{
  "source": "patent US20240035008",
  "test_system": "R2Tg (Taeniopygia guttata)",
  "assay": "cell_activity",
  "details": "homology-guided insertion without Cas9; RLE and RT dependent (Example 10 reports ~0.5%)",
  "data": [
    {"sequence": "TCCTGAGTCGTGCTGCGTCGACAACGGTAGTGACGCGTATTGCCTGGAGGGCGGACGCCGGCATTCGCCGCGTGGTTCCCAGCGACCTGTATCCCCTCGT (double strand) [NOLC1 target (homology arms)]", "values": [
      {"measurement": "activity", "value": 0.1, "unit": "%"}
    ]}
  ]
}
